Data reported in the supplement of paper PMC7877785.
± gives the uncertainty stated by the source.

Experiment: self-splicing fitness, log relative to wild type (ln ratio); higher = more splicing; Tetrahymena group I intron in knt gene, E. coli kanamycin selection, DiMSum; sequences stand for … in CUCUCU…GGAGGGAAAAGUUAUCAGGCAUGCACCUGGUAGCUAGUCUUUAAACCAAUAGAUUGCAUCGGUUUAAAAGGCAAGACCGUCAAAUUGCGGGAAAGGGGUCAACAGCCGUUCAGUACCAAGUCUCAGGGGAAACUUUGAGAUGGCCUUGCAAAGGGUAUGGUAAUAAGCUGACGGACAUGGUCCUAACCACGCAGCCAAGUCCUAAGUCAACAGAUCUUCUGUUGAUAUGGAUGCAGUUCACAGACUAAAUGUCGGUCGGGGAAGAUGUAUUCUUCUCAUAAGAUAUAGUCGGACCUCUCCUUAAUGGGAGCUAGCGGAUGAAGUGAUGCAACACUGGAGCCGCUGGGAACUAAUUUGUAUGCGAAAGUAUAUUGAUUAGUUUUGGAGUACUCGUGGUCG
Summary of the method: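 Colonies from six replicate transformations of E. coli BL21(DE3) were pooled and amplicon-sequenced on an Illumina HiSeq 2500. The library placed an intron with all eight P1ex-region nucleotides randomised inside the knt kanamycin-resistance gene on pET-22b(+), and cells grew overnight at 37°C or 30°C on LB agar with or without 25 μg/mL kanamycin (plus 100 μg/mL carbenicillin, 50 μM IPTG, 0.2% rhamnose). Fitness is the DiMSum error-weighted combination of wild-type-normalised replicate fold changes, kanamycin versus none.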

Row | Sequence | self-splicing fitness (ln) (30 °C) | self-splicing fitness (ln) (37 °C)
1 | GAUGAGCAAUAUUACGUUAC | -2.14 ± 0.13 | -0.982 ± 0.23
2 | GAUGAGCAAUAUUACGUUCA | -1.15 ± 0.079 | -0.819 ± 0.094
3 | GAUGAGCAAUAUUACGUUCC | -3.45 ± 0.49 | -2.23 ± 0.42
4 | GAUGAGCAAUAUUACGUUGC | -4.01 ± 0.39 | -3 ± 0.35
5 | GAUUAGCAAUAUUACGAACG | -1.09 ± 0.12 | 0.232 ± 0.13
6 | GAUUAGCAAUAUUACGAAGC | -2.4 ± 0.21 | -2.28 ± 0.21
7 | GAUUAGCAAUAUUACGAAUG | -0.837 ± 0.14 | -0.649 ± 0.16
8 | GAUUAGCAAUAUUACGAAUU | -2.56 ± 0.3 | -2.95 ± 0.47
9 | GAUUAGCAAUAUUACGACCG | -1.44 ± 0.14 | 0.0909 ± 0.18
10 | GAUUAGCAAUAUUACGACUA | -0.765 ± 0.17 | 0.0117 ± 0.13
11 | GAUUAGCAAUAUUACGAUAU | -1.19 ± 0.11 | -0.869 ± 0.13
12 | GAUUAGCAAUAUUACGCCGU | -1.61 ± 0.15 | -0.986 ± 0.25
13 | GAUUAGCAAUAUUACGCCUG | -1.56 ± 0.2 | -0.102 ± 0.19
14 | GAUUAGCAAUAUUACGCGAG | -2.28 ± 0.17 | -0.865 ± 0.12
15 | GAUUAGCAAUAUUACGCGUC | -4.09 ± 0.47 | -2.01 ± 0.3
16 | GAUUAGCAAUAUUACGCUAC | -3.62 ± 0.42 | -1.48 ± 0.29
17 | GAUUAGCAAUAUUACGCUGU | -2.84 ± 0.28 | -1.74 ± 0.31
18 | GAUUAGCAAUAUUACGGAGC | -3.23 ± 0.17 | -1.23 ± 0.13
19 | GAUUAGCAAUAUUACGGGAG | -2.81 ± 0.24 | -2.8 ± 0.38
20 | GAUUAGCAAUAUUACGGUCA | -1.38 ± 0.15 | -1.2 ± 0.12
21 | GAUUAGCAAUAUUACGGUGU | -2.74 ± 0.09 | -0.798 ± 0.083
22 | GAUUAGCAAUAUUACGUACG | -1.1 ± 0.13 | 0.136 ± 0.15
23 | GAUUAGCAAUAUUACGUCCU | -1.08 ± 0.14 | -0.47 ± 0.18
24 | GAUUAGCAAUAUUACGUGUC | -2.86 ± 0.27 | -2.28 ± 0.26
25 | GAUUAGCAAUAUUACGUUAA | -1.94 ± 0.32 | -1.98 ± 0.3

Row | Sequence | self-splicing fitness (ln) (30 °C) | self-splicing fitness (ln) (37 °C)
26 | GAUUAGCAAUAUUACGUUCA | -0.941 ± 0.084 | -0.497 ± 0.088
27 | GAUUAGCAAUAUUACGUUCU | -2.91 ± 0.11 | -2.07 ± 0.1
28 | GAUUAGCAAUAUUACGUUGC |  | -1.94 ± 0.26
29 | GCAAAGCAAUAUUACGAAAA | -1.98 ± 0.2 | -1.84 ± 0.24
30 | GCAAAGCAAUAUUACGAACU | -0.569 ± 0.094 | -0.26 ± 0.13
31 | GCAAAGCAAUAUUACGAAUC | -1.68 ± 0.12 | -0.115 ± 0.13
32 | GCAAAGCAAUAUUACGAGGG | -3.02 ± 0.11 | -1.55 ± 0.1
33 | GCAAAGCAAUAUUACGAUAG | -2.23 ± 0.11 | -0.989 ± 0.12
34 | GCAAAGCAAUAUUACGAUGG | -1.02 ± 0.099 | -0.442 ± 0.13
35 | GCAAAGCAAUAUUACGCAUU | -2.78 ± 0.12 | -1.7 ± 0.14
36 | GCAAAGCAAUAUUACGCCAC | -3.15 ± 0.27 | -1.93 ± 0.19
37 | GCAAAGCAAUAUUACGCGAG | -2.18 ± 0.28 | -1.11 ± 0.18
38 | GCAAAGCAAUAUUACGCUCA | -0.972 ± 0.13 | -0.0384 ± 0.16
39 | GCAAAGCAAUAUUACGCUGC | -3.72 ± 0.42 | 
40 | GCAAAGCAAUAUUACGCUGU | -3.42 ± 0.26 | -2.84 ± 0.31
41 | GCAAAGCAAUAUUACGGAAG | -1.96 ± 0.14 | -0.343 ± 0.16
42 | GCAAAGCAAUAUUACGGACA | -0.517 ± 0.18 | -0.839 ± 0.14
43 | GCAAAGCAAUAUUACGGACC | -0.898 ± 0.092 | 0.746 ± 0.13
44 | GCAAAGCAAUAUUACGGACU | -0.621 ± 0.047 | 0.0957 ± 0.075
45 | GCAAAGCAAUAUUACGGAGG | -1.9 ± 0.1 | -1.62 ± 0.14
46 | GCAAAGCAAUAUUACGGAUG | -2.52 ± 0.12 | -1.74 ± 0.13
47 | GCAAAGCAAUAUUACGGCGC | -2.1 ± 0.19 | -0.824 ± 0.2
48 | GCAAAGCAAUAUUACGGCGU | -1.78 ± 0.1 | -0.692 ± 0.12
49 | GCAAAGCAAUAUUACGGUCG | -1.62 ± 0.089 | -0.369 ± 0.11
50 | GCAAAGCAAUAUUACGUCGC | -1.48 ± 0.16 | -2.45 ± 0.27

Row | Sequence | self-splicing fitness (ln) (30 °C) | self-splicing fitness (ln) (37 °C)
51 | GCACAGCAAUAUUACGAAGA | -1.41 ± 0.14 | -1.4 ± 0.18
52 | GCACAGCAAUAUUACGACCG | -1.14 ± 0.098 | 0.0916 ± 0.15
53 | GCACAGCAAUAUUACGCACA | -1.09 ± 0.092 | -0.164 ± 0.1
54 | GCACAGCAAUAUUACGCACU | -0.263 ± 0.06 | 0.324 ± 0.077
55 | GCACAGCAAUAUUACGCCAG | -1.99 ± 0.25 | -2.06 ± 0.26
56 | GCACAGCAAUAUUACGCCCC | -0.949 ± 0.12 | -0.0642 ± 0.15
57 | GCACAGCAAUAUUACGCGCG | -1.05 ± 0.066 | -0.445 ± 0.075
58 | GCACAGCAAUAUUACGCUCU | -0.938 ± 0.091 | -0.131 ± 0.1
59 | GCACAGCAAUAUUACGCUGA | -2.36 ± 0.13 | -0.362 ± 0.088
60 | GCACAGCAAUAUUACGGAAA | -2.39 ± 0.2 | 0.239 ± 0.16
61 | GCACAGCAAUAUUACGGACC | -1.43 ± 0.11 | 0.156 ± 0.14
62 | GCACAGCAAUAUUACGGCAG | -3.39 ± 0.2 | -1.4 ± 0.16
63 | GCACAGCAAUAUUACGGGCC |  | -1.7 ± 0.21
64 | GCACAGCAAUAUUACGGGCU | -3.81 ± 0.24 | -1.77 ± 0.12
65 | GCACAGCAAUAUUACGGGUU | -1.17 ± 0.041 | -0.667 ± 0.055
66 | GCACAGCAAUAUUACGGUGU | -3.58 ± 0.14 | -3.45 ± 0.29
67 | GCACAGCAAUAUUACGUAAA | -0.808 ± 0.057 | 0.219 ± 0.077
68 | GCACAGCAAUAUUACGUAGC | -2.19 ± 0.089 | -1.64 ± 0.12
69 | GCACAGCAAUAUUACGUCAG | -2.44 ± 0.12 | -2.48 ± 0.21
70 | GCACAGCAAUAUUACGUCGA | -0.827 ± 0.05 | -0.258 ± 0.062
71 | GCACAGCAAUAUUACGUGCC | -5.1 ± 0.29 | 
72 | GCACAGCAAUAUUACGUGCG | -2.65 ± 0.066 | -1.12 ± 0.066
73 | GCACAGCAAUAUUACGUUUC | -1.61 ± 0.063 | -0.982 ± 0.084
74 | GCAGAGCAAUAUUACGAAUU | -3.99 ± 0.42 | -2.05 ± 0.37
75 | GCAGAGCAAUAUUACGACGA | -2.64 ± 0.24 | -0.208 ± 0.12

Row | Sequence | self-splicing fitness (ln) (30 °C) | self-splicing fitness (ln) (37 °C)
76 | GCAGAGCAAUAUUACGAUCG |  | -1.33 ± 0.34
77 | GCAGAGCAAUAUUACGCACU |  | -3.43 ± 0.43
78 | GCAGAGCAAUAUUACGCAUA | -3.11 ± 0.22 | -2.89 ± 0.24
79 | GCAGAGCAAUAUUACGCCAA | -2.73 ± 0.38 | -2.72 ± 0.44
80 | GCAGAGCAAUAUUACGCUAU | -2.9 ± 0.33 | -1.32 ± 0.28
81 | GCAGAGCAAUAUUACGCUCU | -3.93 ± 0.44 | 
82 | GCAGAGCAAUAUUACGGACC | -3.65 ± 0.37 | -0.0809 ± 0.29
83 | GCAGAGCAAUAUUACGGACG |  | -2.96 ± 0.29
84 | GCAGAGCAAUAUUACGGAUU | -3.62 ± 0.3 | 
85 | GCAGAGCAAUAUUACGGCGA | -2.12 ± 0.11 | -1.55 ± 0.11
86 | GCAGAGCAAUAUUACGGCGC | -2.3 ± 0.23 | -1.28 ± 0.41
87 | GCAGAGCAAUAUUACGGGAG | -2.81 ± 0.21 | -2.81 ± 0.32
88 | GCAGAGCAAUAUUACGGGCA | -2.97 ± 0.17 | -1.67 ± 0.15
89 | GCAGAGCAAUAUUACGGGGA | -3.65 ± 0.37 | -2.84 ± 0.36
90 | GCAGAGCAAUAUUACGGUCA | -0.893 ± 0.21 | -0.283 ± 0.14
91 | GCAGAGCAAUAUUACGGUGA | -2.68 ± 0.22 | -2.53 ± 0.24
92 | GCAGAGCAAUAUUACGUAGA | -2.99 ± 0.15 | -1.78 ± 0.14
93 | GCAGAGCAAUAUUACGUCCU | -3.22 ± 0.42 | -0.41 ± 0.27
94 | GCAGAGCAAUAUUACGUCGU | -2.88 ± 0.18 | -0.722 ± 0.16
95 | GCAGAGCAAUAUUACGUGCC | -3.66 ± 0.3 | -2.94 ± 0.3
96 | GCAGAGCAAUAUUACGUGCG | -2.76 ± 0.096 | -0.667 ± 0.1
97 | GCAGAGCAAUAUUACGUGUC | -4.24 ± 0.26 | -2.16 ± 0.21
98 | GCAGAGCAAUAUUACGUUGG | -2.91 ± 0.18 | -1.09 ± 0.19
